B1: TPR t1 (parent)
chain: GACCAAUCUGCCCUCAGAGCUCGAGAACAUCUUCGGAUGCAGAGGAGGCAGGCUUCGGUGGCGCGAUAGCGCCAACGUCCUCAACCUCCAAUGCAUCCCACCACAUGAUGAUGCCUGAAGAGCCUUGGUUUUUUG

Variants of: B1
Test: polymerase ribozyme fitness, log enrichment relative to wild type (log ratio); higher = more active; in vitro selection for triplet polymerase activity
Procedure, shortened: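 Mutant libraries of each subunit of a heterodimeric triplet polymerase ribozyme were built by PCR and transcribed. Each library went through one round of in vitro selection in triplicate: annealing with biotinylated primer, partner subunit and triplets, frozen incubation at −7 °C, gel excision of extended constructs, streptavidin-bead capture and RT-PCR. Input and output libraries were Illumina-sequenced; only genotypes with ≥10 input reads and ≥1 read per output were kept. Fitness is log2(genotype enrichment/wild-type enrichment), using inverse-variance-weighted replicate averages.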

| Variant | polymerase ribozyme fitness (log ratio) |
| --- | --- |
| GACCAAUCUGCCUUCAGAGCUCGAGAACAUCUUCGGAUGCAUAGGAGGCAGGCUUCGGUGGCGCGAUAGCGCCAACGUCCUCAACCUCCAAUGCAUCCCACCAUAUGAUGAUGCCUGAAGAGCCUUGGUUUUUUG | -0.915 |
| GACCAAUCUGCCUUCAGAGCUCGAGAACAUCUUCGGAUGCAUAGGAGACAGGCUUCGGUGGCGCGAUAGCGCCAACGUCCUCAACCUCCAAUGCAUCCCACCACAUGAUGAUGCCUGAAGAGCCUUGGUUUUUUG | -1.13 |
| GACCAAUCUGCCUUCAGAGCUCAAGGACAUCUUCGGAUGCAGAGGAGGCAGGCUUCGGUGACGCGAUAGCGCCAACGUUCUCAACCUCCAAUGCAUCCCACCACACGAUGAUGCCUGAAGAGCCUUGGUUUUUUG | -4.2 |
| GACCAAUCUGCCUUCAGAGCUCGAGAACAUCUUCGGAUGCACAGGAGGCAGGCUUCGGUGGCGCGAUAGCGCCAACGUCCUCAACCUCCAAUGCAUCCCACCACAUGAUGAUGCCUGAAGAGCCUUGGUUUUUUG | -0.781 |
| GACCAAUCUGCCUUCAGAGCUCGAGAACAUCUUCGGAUGCAGAGGAGGCAGGCUUCGGUGGCGCGAUAGCGCCAACGUCCUCAACCUCCAAUGCAUCCCACCACAUGAUGAUGCCUGAAGAGCAUUGAUUUUUUG | 0.853 |
| GACCAAUCUGCCUUCAGAGCUCGAGAACAUCUUCGGAUACAGAGGAGGCAGGCUUCGGUGGCGCGAUAGCGCCAACGUCCUCAACCUCCAGUGCAUCCCACCACAUGAUGAUGCCUGAAGAGACUUGGUUUUUUG | 0.557 |
| GACCAAUCUGCCUUCAGAGCUCGAGAACAUCUUCGAAUGCAGAGGAGGCAGGCUUCGGUGGCGUGAUAGCGCCAACGUCCUCAACCUCCAAUGCAUCCCACCACAUGAUGAUGCCUGAAGAGCCUUGGUUUUUUG | -0.484 |
| GACCAAUCUGCCUUCAGAGCUCGAGAACAUCUUCGGAUUCGGAGGAGGCAGGCUUCGGUGGCGCGAUAGCGUCAACGUCCUCAACCUCCAAUGCAGCCCACCACAUGAUGAUGCCUAAAGAGCCUUGGUUUUUUG | -3.31 |
| GACCAAUCUGCCUUCAGAGCUCGAGAACAUCUUCGCAUGCAGUGGAGGCAGGCUUCGGUGGCGCGAUAGCGCCAACGUCCUCAACCUCCAAUGCAUCCCACCACAUGAUGAGGCCUGAAGAGCCUUUAUUUUUUG | -5.23 |
| GACCAAUCUGCCUUCAGAUCUCGAGAACAUCUUCGGAUGCAUAGGAGGCAGGCUUCGGUAGCGCGAUAGCGCCAACGUCCUCAACCUCCAAUGCAUCCCACCACAUGAUUAUGCCUGAAGAGCCUUGGUUUUUUG | -5.83 |
| GACCAAUCUGCCUUCAGAGCUCGAGAACAUCUUCGGAUGCAUAGGAGGCAGGCUUCGGUGGCGCGAUAGCUCCAACGUCCUCAACCACCAAUGCAUCCCACCACAUGAUGAUGCCUGAACAGCCUUGGUUUUUUG | -1.77 |
| GACCAAUCUGCCUUCAGAGCUCGAGAACAUCUUCGGAUGCAGAGGAGGCAGGCUUCGGUGGCGCGAUAGCGCCAACGUCCUCAACCUCCAAUGCAUCCCACCACAUGAUGAUGACUGAAGAGCCUUGGUUUUUUG | -1.07 |
| GACCAAUCUGCCUUCAGAGCUCGAGAACAUCUUCGGAUGCAGAGGAGGCAGGCUUCGGUGGCGCGAUAGCGCCAACGUCCUCAACCUCCAAUGCAUCCCACCACAUGAUGAUGGCUGAAGAGCCUUGGUUUUUUG | -1.34 |
| GACCAAUCUGCCUUCAGAGCUCGAGAACAUCUUCGGAUGCAGAGGAGGCAGGCUUCGGUGGCGCGAUAGCGCCAACGUCCUCAACCUCCAAUGCAUCCCACCACAUGAUGAUGCCUGAAGAGCAUUGGUUUUUUG | 1.91 |
| GACCAAUCUGCCUUCAGAGCUCGACAACAUCUGCGGAUGCAGAGGAGGCAGGCUUCGGUGGCGCGAUAGUGCCAACGUCCACAACCUCCAAUGCAUCCCACCACAUGAAGAUGCCUGAAGAGCCUUGGUUUUUUG | -6.3 |
| GACCAAUCUGCCUUCAGAGCUCGAGAACAUCUUCGGAUCCAGAGGAGGCAGGCUUCGGUGGCGCGAUAGCGCCAACGUCCUCAACCUUCAAUGCAUCCCACUAAAUGAUGAUACCUGAAGAGCCUUGGUUUUUUG | -2.3 |
| GACCAAUCUGCCUUCAGAGCUCGAGAACAUCUUCGGAUGCAGAGGAGGCAGGCUUCGGUGGCGCGAUAGCGCCAACGUCCUCAACCUCCAAUGCAUCCCACGACAUGAUGAUGCCUGAAGAGCCUUGGUUUUUUG | -6.43 |
| GACCAAUCUGCCUUCAGAACUCGAGAACAUCUUCGGGUGCAGAGGAGGCAGGCUUCGGUGGCGCGAUAGCGCCAACGUCCUCAACCUCCAAUGCAUCCCACCACAUGAUGAUGCCUGAAGAGCCUUGGUUUUUUG | -2.93 |
| GACCAAUCUGCCUUCAGAGCUCGAGAACAUCUUCGAAUGCAGAGGAGGCAGGCUUCGGUGGCGCGAUAGCGCCAACGUCCUCAACCUCCAAUGCAUCCCACCACAUGAUGAUGCCUGAAGAGCCUUGGUUUUUUG | -0.918 |
| GACCAAUCUGCCUUCAGAUCUCGAGAACAUCUUCGGAUGCAGAGGAGGCGGGCUUCGGUGGCGCGAUAGCGCCAACGUCCUCAACCUCCAUUGCAUCCCACCACAUGAUGAUGCCUGAAGAGCCUUGGUUUUUUG | -2.58 |
| GACCAAUCUGCCUUCAGACCUCGAGAACAUCUUCGGAUGCAGAGGAGGCAGGCUUCGGUGGCGCGAUAGUGCCAACGUCCUCAACCUCCAAUGCAUCCCACCACAUGAUGAUGCCUGAAGAGCCUUGGUUUUUUG | -2.89 |

| Variant | polymerase ribozyme fitness (log ratio) |
| --- | --- |
| GACCAAUCUGCCUUCAGAGCUCGAGAACAUCUUCGGAUCCAGAGGAGGCAGGCUUCGGUGGCGCGAUAGCGUCAACGUCCUCAACCUCCAAUGCAUCCCACCACAGGAUGAUGCCUGAAGAGCCUUGGUUUUUUG | -2.03 |
| GACCAAUCUGCCUUCAGAGCUCGAGAACAUCUUCGGAUGCAUAGGAGGCAGGCUUUGGUGGCGCGAUAGCGCCAACGUCCUCAACCUCCAAUGCAUCCCACCACAUGAUGAUGGCUGAAGAGACUUGGUUUUUUG | -1.36 |
| GACCAAUCUGCCUUCAGAGCUCGAGAACAUCUUCGGAUACAGAGGAGGCAGGCUUCGGUGGCGCGAUAGCGCCAACGUCCUCAACCUCCAAUGCAUCCCACCUCAUGAUGAUGCCUGAAGAGUCUUGGUUUUUUG | -4.74 |
| GACCAAUCUGCCUUCAGAGCUCGAGAACAUCUUCGUAUGCAGAGGAGGCAGGCUUCGGUGGCGCGAUAGCGCCAACGUCCUCAACCUCCAAUGCAUCCCACCACAUGAUGAUGCCUGAAGAGCCUUGGUUUUAUG | -1.43 |
| GACCAAUCUGCCUUCAGAGCUCGAGAACAUCUUCGGAUGCAUACGAGGCAGGCUUCGGUGGCGCGAUAGCGCCAACGUCCUCAACCUACAAUGCAUCCCACCACAUGAUGAUGCCUGAAGAGCCUUGGUUUUUUG | -1.42 |
| GACCAAUCUGCCUUCAGAGCUCGAGAACAUCUUCGGAUGCAGACGAGGCAGGCUUCGGUGGCGCGAUAGCGCCCACGUCCUCAACCUCCAAUGCAUCCCACCACAUGAUGCUGCCUGAAGAGCCUUGGUUUUUUG | -0.273 |
| GACCAAUCUGCCUUCAAAGCUCGAGAACAUCUUCGGAUGCAGAGGAGGCAGGCUUCGGUGGUGCGAUAGCGCCAACGACCACAACCUCCAAUGCAUCCCACCACAUGAUGAAGCCUGAAGAGCCUUGGUUUUUUG | -4.61 |
| GACCAAUCUGCCUUCAGAGCUCGAGAACAUCUUCGGAUGCAGAGGAGGCAGGCUUCGGUGGCGCGAUAGCGCCAACGUCCUCAACCUCCAAUGCAUCCCACCACAUGAUGAUGCUUCAAGAGCCUUGGUUUUUUG | -6.41 |
| GACCAAUCUGCCUUCAGAGCUCGAGAACAUCUUCGGAUUCAGAUGAGGCAGGCUUCGGUGGCGCGAUGGCGCCAACGUCCUCAACCUCCAAUGCAUCCCACCACAUGAUGAUGCCUGAAGAGCCUUGGUUUUUUG | -5.44 |
| GACCAAUCUGCCUUCAGAGCUCGAGAACAUCUUCGGAUGCAGAGGAGGCAGGCUUCGGUGGCGCGAUAGCGCCAACGUCCUCAACCUCCAAUGCAUCCCACCACAUGAUGAUGCUUGAAGAGCCUUGGUUUUUUG | -0.41 |
| GACCAAUCUGCCUUCAGAGCUCGAGAACAUCUUCGGAUACAGAGGAGGCAGGCUUCGGUGGCGCGAUAGCGCCAACGUCCUCAACCUCCAAUGCAUCCCACCACAUGAUGAUGCCUGAAGAGCCUUGGUUUUUUG | -0.593 |
| GACCAAUCUGCCUUCAGAGCUCGAGAACAUCUUCGGAUGCAUAGGAGGCAGGCUUCGGUGGCGCGAUAGCGCCAACGUCCUCAACCUCCUAUGCUUCCCACCACAUGAUGAUGCCUGAAGAGCCUUGGUUUUUUG | -1.89 |
| GACCAAUCUGCCUUCAGAGCUCGAGAACAUCUUCGUAUGCAGAGGAGGCAGGCUUCGGUGGCGCGAUAGCGCCAACGUCCUCAACCUCCAAAGCAUCCCACCACAUGAUGAUGCCUGAAGAGCCUUGGUUUUUUG | -4.57 |
| GACCAAUCUGCCUUCAGAGCUCGAGAACAUCUUCGGAUGCAGAGGAGGCAGGCUUCGGUGGCGCGAUAGCGCCAACGUCCUCAACCUCCAAUGCAUCCCACCACAUGAUGAUGCCUGAAGAGGCUUGGUUUUUUG | 2.04 |
| GACCAAUCUGCCUUCAGAGCUCGAGAACAUCUUCGGAUGCAGAGGAGGCAGGCUUCGGUGGCGCGAUAGCGCCAACGUCCUCAACCUCCAAUGUCUCCCACCACAUGAUGAUGCCUGAAGAGCCUUGGUUUUUUG | -1.52 |
| GACCAAUCUGCCUUCAGAGCUCGAGAACAUCUUCGCAUGCAGAGGAGGCAGGCUUCGGUGGCGCGAUAGCGCCCACGUCCUCAACCUCCAAUGCAUCCCACCACAUGAUGAUGCCUGAAGAGCCUUGGUUUUUUG | 0.0868 |
| GACCAAUCUGCCUUCAGAGCUCGAGAACAUCUUCGGAUGCAGAGGAGGCAGGCUUCGGUGGCGCGAUAGCGCCAACGUCCUCAACCUCCAAUGCAUUCCACCACAUGAUGAUGCCUGAAGAGCCUUGGUUUUUUG | -1.03 |
| GACCAAUCUGCCUUCAGAGCUCGAGAACAUCUUCGGAUGCAGAGGAGGCAGGCUUCGGUGGCGCGAUAGCGCCAACGUCCUCAACCUCCAAUGCAUACCACCACAUGAUGAUGCCUGAAGAGCCUUGGUUUUUUG | -3.93 |
| GACCAAUCUGCCUUCAGAGCUCGAGAACAUCUUCGGAUGCAGAGGAGGCAGGCUUCGGUGGCGCGAUAGCGCCAACGUCCUCAACCUCCAAUGCAUCCUACCACAUGAUGAUGCCUGAAGAGCCUUGGUUUUUUG | -2.12 |
| GACCAAUCUGCCUUCAGAGCUCGAGAACAUCUUCGGAUCCAGAGGAGGCAGGCUUCGAUGGCGCGAUAGCGCCAACGUCCUCAACCUCCAAUGCAUCCCACCACAUGAUGAUGCCUGUAUAGCCUUGGUUUUUUG | 0.174 |
| GACCAAUCUGCCUUCAGACCUCGAGAACAUCUUCGGAUGUAGAGGAGGCAGGCUUCGGUGGCGCGAUAGCGUCAACGUCCUCAACCUCCAAUGCAUCACACCACAUGAUUAUGCCUGAAGAGCCUUGGUUUUUUG | -8.2 |
